Assay results taken from patent US20120316071A1 (published 2012).
Where a chain is given by its changes, count along the chain named. In names and notes the source's numbering stands.

What was measured:
[1] = biological target: T1, Recombinant Human DLL4 (R&D Systems Cat#1506-D4/CF) (human, UniProt Q9NR61 27-524); experiment: ELISA, DLL4 coated on plate, Fab at 20 nM
T1 construct: Bought recombinant protein; also called delta-like protein 4; Delta-like 4

[2] = biological target: T1, Recombinant Human DLL4 (R&D Systems …); experiment: ELISA, DLL4 coated on plate, Fab at 0.74 nM
[3] = biological target: T1, Recombinant Human DLL4 (R&D Systems …); experiment: ELISA, DLL4 coated on plate, Fab at 2.22 nM
[4] = biological target: T1, Recombinant Human DLL4 (R&D Systems …); experiment: ELISA, DLL4 coated on plate, Fab at 6.67 nM
[5] = biological target: T2, Recombinant Human DLL4 (R&D Systems Cat#1506-D4/CF) (human, UniProt Q9NR61 27-529); experiment: surface plasmon resonance, Fab against recombinant human DLL4; standard deviation in parentheses
T2 construct: Bought recombinant protein; also called rHuman DLL4; delta-like protein 4

[6] = biological target: T2, Recombinant Human DLL4 (R&D Systems …); experiment: 96-well plate ECL (MSD) assay, DLL4 coated on plate, Fab at 0.04 µM; ECL signal on DLL4 over signal on blank well
[7] = biological target: T3, Recombinant Human DLL4 (delta-like protein 4) (human, UniProt Q9NR61 27-524); experiment: ELISA on plate-coated DLL4, absorbance at 450 nm, signal minus noise
T3 construct: Bought recombinant protein (R&D Systems Cat#1506-D4/CF); also called rHuman DLL4; Delta-like 4

[8] = biological target: T3, Recombinant Human DLL4 (delta-like …); experiment: ECL (MSD) multispot binding assay, immobilized DLL4, 10 nM Fab, signal over blank
[9] = biological target: T4, rHuman ErbB2/Fc Chimera, CF (R&D Systems Cat#1129-ER) (human, UniProt P04626 23-652); experiment: ECL multispot (MSD), 20 nM Fab;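 note: purified Fab binding to antigens on multispot plates, read by electrochemiluminescence with a TAG-labelled detection antibody, 1 h Fab incubation at 20 °C, signal expressed relative to each well's blank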
T4 construct: Bought recombinant protein; also called human epidermal growth factor 2 receptor; Fc part of the bought chimera not given

[10] = biological target: T5, rHuman EGF R/Fc Chimera, CF (R&D Systems Cat#344-ER) (human, UniProt P00533 25-645); experiment: ECL multispot (MSD), 20 nM Fab;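 note: purified Fab binding to antigens on multispot plates, read by electrochemiluminescence with a TAG-labelled detection antibody, 1 h Fab incubation at 20 °C, signal expressed relative to each well's blank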
T5 construct: Bought recombinant protein; also called epidermal growth factor receptor; Fc part of the bought chimera not given

[11] = biological target: T6, rHuman CD44/Fc Chimera, CF (R&D Systems Cat#3660-CD) (human, UniProt P16070 21-220); experiment: ECL multispot (MSD), 20 nM Fab;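 note: purified Fab binding to antigens on multispot plates, read by electrochemiluminescence with a TAG-labelled detection antibody, 1 h Fab incubation at 20 °C, signal expressed relative to each well's blank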
T6 construct: Bought recombinant protein; Fc part of the bought chimera not given

[12] = biological target: T7, rHuman IGF-1 sR, (IGF-1 sR), CF (R&D Systems Cat#391-GR) (human, UniProt P08069 31-932); experiment: ECL multispot (MSD), 20 nM Fab;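 note: purified Fab binding to antigens on multispot plates, read by electrochemiluminescence with a TAG-labelled detection antibody, 1 h Fab incubation at 20 °C, signal expressed relative to each well's blank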
T7 construct: Bought recombinant soluble receptor; also called insulin-like growth factor-1 soluble receptor

[13] = biological target: T8, rHuman P-Cadherin/Fc Chimera, CF (R&D Systems Cat#861-PC) (human, UniProt P22223 108-654); experiment: ECL multispot (MSD), 20 nM Fab
T8 construct: Bought recombinant protein; Fc part of the bought chimera not given

[14] = biological target: T9, rHuman Erythropoietin R/Fc Chimera, CF (R&D Systems Cat#963-ER) (human, UniProt P19235 25-250); experiment: ECL multispot (MSD), 20 nM Fab
T9 construct: Bought recombinant protein; also called EPO R; EPO R/Fc; Fc part of the bought chimera not given
T9 sequence (looked up): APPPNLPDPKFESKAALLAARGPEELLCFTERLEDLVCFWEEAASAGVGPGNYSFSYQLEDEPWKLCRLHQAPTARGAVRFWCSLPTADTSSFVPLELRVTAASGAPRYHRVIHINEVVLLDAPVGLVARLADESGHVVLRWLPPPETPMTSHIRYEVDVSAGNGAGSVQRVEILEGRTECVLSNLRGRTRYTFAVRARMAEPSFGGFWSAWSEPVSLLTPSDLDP

B1: Fab VH5-51_IGHD5-18*01>3_IGHJ4*01 G100K/G104T G24A/S28R/G35V (H:KT ARV) & V3-4_IGLJ1*01 (Fab, V domains shown)
VH: EVQLVQSGAEVKKPGESLKISCKASGYRFTSYWIVWVRQMPGKGLEWMGIIYPGDSDTRYSPSFQGQVTISADKSISTAYLQWSSLKASDTAMYYCARRKYSYTYDYFDYWGQGTLVTVSS
VL: QTVVTQEPSFSVSPGGTVTLTCGLSSGSVSTSYYPSWYQQTPGQAPRTLIYSTNTRSSGVPDRFSGSILGNKAALTITGAQADDESDYYCVLYMGSGISYVFGTGTKVTVL
notes: Fab expressed in E. coli; Plasmid A adds CH1 with His6 and Flag tags to the heavy chain; Plasmid E adds lambda CL to the light chain; also called H:KT ARV & L:wt; G100K/G104T G24A/S28R/G35V & parent
Work on B1 yielded an ELISA signal [1] of 0.054, an ELISA signal [2] of 0.008 and an ELISA signal [3] of 0.002. It also gave an ELISA signal [4] of 0.025.

B2: Fab VH5-51_IGHD5-18*01>3_IGHJ4*01 G100K/G104T G24L/S28R/G35V (H:KT LRV) & V3-4_IGLJ1*01 (Fab, V domains shown)
VH: B1 VH with A24L
VL: B1 VL
notes: Fab expressed in E. coli; Plasmid A adds CH1 with His6 and Flag tags to the heavy chain; Plasmid E adds lambda CL to the light chain; also called H:KT LRV & L:wt; G100K/G104T G24L/S28R/G35V & parent
B2 gave an ELISA signal [1] of 0.027, an ELISA signal [2] of 0.006 and an ELISA signal [3] of 0. It also gave an ELISA signal [4] of 0.005.

B3: Fab VH1-46_IGHD6-6*01_IGHJ1*01 & L6_IGKJ1*01 (Fab, V domains shown)
VH: QVQLVQSGAEVKKPGASVKVSCKASGYTFTSYYMHWVRQAPGQGLEWMGIINPSGGSTSYAQKFQGRVTMTRDTSTSTVYMELSSLRSEDTAVYYCAREEYSSSSAEYFQHWGQGTLVTVSS
VL: not shown
notes: Germline Fab made in E. coli: VH in Plasmid A (CH1, His6 and Flag tags), kappa VL in Plasmid C (kappa CL); also called parental; wildtype
Work on B3 yielded a Kd [5] of 730 nM, a koff [5] of 0.101 s⁻¹ and a kon [5] of 163000 M⁻¹ s⁻¹. The Signal/Noise [6] was 3.1.

B4: Fab VH1-46_IGHD6-6*01_IGHJ1*01 S102A/S103P/S104F/H111F S84G & L6_IGKJ1*01 (Fab, V domains shown)
VH: B3 VH with S84G, S102A, S103P, S104F, H111F
VL: not shown
notes: Tested as Fab expressed in E. coli; also called APFF S84G
With B4 the “ELISA (Signal-Noise)” value [7] was 0.53 and the “Signal/Blank [10 nM Fab]” value [8] was 346.

B5: Fab VH1-46_IGHD6-6*01_IGHJ1*01 S102A/S103P/S104F/H111F S84Q & L6_IGKJ1*01 (Fab, V domains shown)
VH: B3 VH with S84Q, S102A, S103P, S104F, H111F
VL: not shown
notes: Tested as Fab expressed in E. coli; also called APFF S84Q
B5 was tested, and the “ELISA (Signal-Noise)” value [7] was 0.39 and the “Signal/Blank [10 nM Fab]” value [8] was 413.

B6: Fab VH1-46_IGHD6-6*01_IGHJ1*01 S102A/S103P/S104F/H111F S84N & L6_IGKJ1*01 (Fab, V domains shown)
VH: B3 VH with S84N, S102A, S103P, S104F, H111F
VL: not shown
notes: Tested as Fab expressed in E. coli; also called APFF S84N
With B6 the “ELISA (Signal-Noise)” value [7] was 0.47 and the “Signal/Blank [10 nM Fab]” value [8] was 497.

B7: Fab VH1-46_IGHD6-6*01_IGHJ1*01 S102A/S103P/S104F/H111F S84R & L6_IGKJ1*01 (Fab, V domains shown)
VH: B3 VH with S84R, S102A, S103P, S104F, H111F
VL: not shown
notes: Tested as Fab expressed in E. coli; also called APFF S84R
For B7, the “ELISA (Signal-Noise)” value [7] was 0.26 and the “Signal/Blank [10 nM Fab]” value [8] was 433.

B8: Fab VH1-46_IGHD6-6*01_IGHJ1*01 S102A/S103P/S104F/H111F S84T & L6_IGKJ1*01 (Fab, V domains shown)
VH: B3 VH with S84T, S102A, S103P, S104F, H111F
VL: not shown
notes: Tested as Fab expressed in E. coli; also called APFF S84T
In the case of B8, the “ELISA (Signal-Noise)” value [7] is reported as 0.4 and the “Signal/Blank [10 nM Fab]” value [8] is reported as 1080.

B9: Fab VH1-46_IGHD6-6*01_IGHJ1*01 S102A/S103P/S104F/H111F S84K & L6_IGKJ1*01 (Fab, V domains shown)
VH: B3 VH with S84K, S102A, S103P, S104F, H111F
VL: not shown
notes: Tested as Fab expressed in E. coli; also called APFF S84K
B9 was tested, and the “ELISA (Signal-Noise)” value [7] was 0.29 and the “Signal/Blank [10 nM Fab]” value [8] was 448.

B10: Fab VH1-46_IGHD6-6*01_IGHJ1*01 S102A/S103P/S104F/H111F S84H & L6_IGKJ1*01 (Fab, V domains shown)
VH: B3 VH with S84H, S102A, S103P, S104F, H111F
VL: not shown
notes: Tested as Fab expressed in E. coli; also called APFF S84H
In the case of B10, the “ELISA (Signal-Noise)” value [7] is reported as 0.41 and the “Signal/Blank [10 nM Fab]” value [8] is reported as 457.

B11: Fab VH3-23_IGHD2-21*01>3_IGHJ6*01 H100E/S108P/Y113G (EPG) & V2-13_IGLJ2*01 (Fab, V domains shown)
VH: not shown
VL: SSELTQDPAVSVALGQTVRITCQGDSLRSYYASWYQQKPGQAPVLVIYGKNNRPSGIPDRFSGSSSGNTASLTITGAQAEDEADYYCNSRDSSGNHLVVFGGGTKLTVL
notes: Fab; CH1 (His and Flag tags) and lambda CL come from the expression vectors; also called H:EPG
For B11, the “ECL signal ratio (column head gives no unit)” value [9] was 11.7, the “ECL signal ratio (column head gives no unit)” value [10] was 8.4 and the “ECL signal ratio (column head gives no unit)” value [11] was 1.7. The “ECL signal ratio (column head gives no unit)” value [12] was 1.7.

B12: Fab VH3-23_IGHD2-21*01>3_IGHJ6*01 H100E/S108P/Y113G (EPG) Y109W & V2-13_IGLJ2*01 (Fab, V domains shown)
VH: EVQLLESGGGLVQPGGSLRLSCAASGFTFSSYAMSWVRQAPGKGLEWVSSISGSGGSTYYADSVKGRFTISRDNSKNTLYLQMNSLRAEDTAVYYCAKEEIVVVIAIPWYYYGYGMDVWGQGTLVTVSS
VL: B11 VL
notes: Fab; NNK mutant of the EPG heavy chain; CH1 (tags) and lambda CL come from the vectors
For B12, the “ECL signal ratio (column head gives no unit)” value [9] was 16.1, the “ECL signal ratio (column head gives no unit)” value [10] was 11.1 and the “ECL signal ratio (column head gives no unit)” value [12] was 1.5. The “ECL signal ratio (column head gives no unit)” value [13] was 32 and the “ECL signal ratio (column head gives no unit)” value [14] was 169.
